Source: US20120207760A1

How the values were obtained:
Conditions in all cases: remark: other sources report otherwise
[1] = molecular target: T1, recombinant homotrimeric HA, A/California/4/09 H1N1 (Influenza A virus A/California/4/09 (H1N1)); test: trimeric HA microarray, transfection set 3
[2] = molecular target: T2, recombinant homotrimeric HA, A/Egypt/3300-NAMRU3/08 H5N1 (Influenza A virus A/Egypt/3300-NAMRU3/08 (H5N1)); test: trimeric HA microarray, transfection set 3
[3] = molecular target: T3, recombinant homotrimeric HA, A/Hong Kong/1073/99 H9N2 (Influenza A virus A/Hong Kong/1073/99 (H9N2)); test: trimeric HA microarray, transfection set 3
[4] = molecular target: recombinant homotrimeric HA, A/Hong Kong/2108/03 H9N2 (Influenza A virus A/Hong Kong/2108/03 (H9N2)); test: trimeric HA microarray, transfection set 3
[5] = molecular target: recombinant homotrimeric HA, A/Indonesia/5/05 H5N1 (Influenza A virus A/Indonesia/5/05 (H5N1)); test: trimeric HA microarray, transfection set 3
[6] = molecular target: T4, recombinant homotrimeric HA, A/Japan/305/57 H2N2 (Influenza A virus A/Japan/305/57 (H2N2)); test: trimeric HA microarray, transfection set 3
[7] = molecular target: T5, recombinant homotrimeric HA, A/Solomon Islands/3/06 H1N1 (Influenza A virus A/Solomon Islands/3/06 (H1N1)); test: trimeric HA microarray, transfection set 3
[8] = molecular target: T6, recombinant homotrimeric HA, A/South Carolina/1/18 H1N1 (Influenza A virus A/South Carolina/1/18 (H1N1)); test: trimeric HA microarray, transfection set 3
[9] = molecular target: T7, recombinant homotrimeric HA, A/Vietnam/1203/04 H5N1 (Influenza A virus A/Vietnam/1203/04 (H5N1)); test: trimeric HA microarray, transfection set 3
[10] = molecular target: T8, recombinant homotrimeric HA, A/Wisconsin/67/05 H3N2 (Influenza A virus A/Wisconsin/67/05 (H3N2)); test: trimeric HA microarray, transfection set 3
[11] = molecular target: T9, recombinant homotrimeric HA, A/chicken/Vietnam/NCVD-016/08 H5N1 (Influenza A virus A/chicken/Vietnam/NCVD-016/08 (H5N1)); test: trimeric HA microarray, transfection set 3
[12] = molecular target: T10, recombinant homotrimeric HA, A/common magpie/Hong Kong/5052/07 H5N1 (Influenza A virus A/common magpie/Hong Kong/5052/07 (H5N1)); test: trimeric HA microarray, transfection set 3
[13] = molecular target: T11, recombinant homotrimeric HA, A/northern shoveler/California/HKWF115/07 (Influenza A virus A/northern shoveler/California/HKWF115/2007 (H6N1)); test: trimeric HA microarray, transfection set 3
[14] = molecular target: T12, recombinant homotrimeric HA, A/swine/Ontario/01911-2/99 H4N6 (Influenza A virus A/swine/Ontario/01911-2/99 (H4N6)); test: trimeric HA microarray, transfection set 3
[15] = molecular target: recombinant homotrimeric HA, A/duck/Yangzhou/02/05 H8N4 (Influenza A virus A/duck/Yangzhou/02/2005 (H8N4)); test: trimeric HA microarray, transfection set 3
[16] = molecular target: recombinant soluble homotrimeric HA of A/Solomon Islands/3/06 (H1N1) (Influenza A virus A/Solomon Islands/3/06 (H1N1)); test: microarray, BCC supernatant IgG, trimeric HA
[17] = molecular target: recombinant soluble homotrimeric HA of A/duck/Yangzhou/02/05 (H8N4) (Influenza A virus A/duck/Yangzhou/02/2005 (H8N4)); test: microarray, BCC supernatant IgG, trimeric HA
[18] = molecular target: recombinant homotrimeric HA, A/Netherlands/219/03 H7N7 (Influenza A virus A/Netherlands/219/03 (H7N7)); test: trimeric HA microarray, transfection set 3
[19] = molecular target: T1, recombinant homotrimeric HA, …; test: trimeric HA microarray, transfection set 5
[20] = molecular target: T4, recombinant homotrimeric HA, …; test: trimeric HA microarray, transfection set 5
[21] = molecular target: T5, recombinant homotrimeric HA, A/Solomon …; test: trimeric HA microarray, transfection set 5
[22] = molecular target: T8, recombinant homotrimeric HA, …; test: trimeric HA microarray, transfection set 5
[23] = molecular target: recombinant soluble homotrimeric HA of A/California/4/09 (H1N1) (Influenza A virus A/California/4/09 (H1N1)); test: microarray, BCC supernatant IgG, trimeric HA
[24] = molecular target: recombinant soluble homotrimeric HA of A/chicken/Vietnam/NCVD-016/08 (H5N1) (Influenza A virus A/chicken/Vietnam/NCVD-016/08 (H5N1)); test: microarray, BCC supernatant IgG, trimeric HA
[25] = molecular target: recombinant soluble homotrimeric HA of A/northern shoveler/California/HKWF115/07 (Influenza A virus A/northern shoveler/California/HKWF115/2007); test: microarray, BCC supernatant IgG, trimeric HA
[26] = molecular target: T1, recombinant homotrimeric HA, …; test: trimeric HA microarray, transfection set 2
[27] = molecular target: T2, recombinant homotrimeric HA, …; test: trimeric HA microarray, transfection set 2
[28] = molecular target: T3, recombinant homotrimeric HA, A/Hong …; test: trimeric HA microarray, transfection set 2
[29] = molecular target: T4, recombinant homotrimeric HA, …; test: trimeric HA microarray, transfection set 2
[30] = molecular target: T5, recombinant homotrimeric HA, A/Solomon …; test: trimeric HA microarray, transfection set 2
[31] = molecular target: T6, recombinant homotrimeric HA, A/South …; test: trimeric HA microarray, transfection set 2
[32] = molecular target: T7, recombinant homotrimeric HA, …; test: trimeric HA microarray, transfection set 2
[33] = molecular target: T8, recombinant homotrimeric HA, …; test: trimeric HA microarray, transfection set 2
[34] = molecular target: T9, recombinant homotrimeric HA, …; test: trimeric HA microarray, transfection set 2
[35] = molecular target: T10, recombinant homotrimeric HA, A/common …; test: trimeric HA microarray, transfection set 2
[36] = molecular target: T11, recombinant homotrimeric HA, A/northern …; test: trimeric HA microarray, transfection set 2
[37] = molecular target: T12, recombinant homotrimeric HA, …; test: trimeric HA microarray, transfection set 2
[38] = molecular target: recombinant soluble homotrimeric HA of A/Wisconsin/67/05 (H3N2) (Influenza A virus A/Wisconsin/67/05 (H3N2)); test: microarray, BCC supernatant IgG, trimeric HA

B1: TCN-530 (5248_H10a) (antibody, V domains shown)
VH: QVQLVQSGAEVRKPGSSVKVSCKASGGPFMSYAIGWVRQAPGQGLEWMGGINPVFGRPHYAQKFQGRVTIATDDSTKTSYMELSSLTSEDTGMYYCASRYSRSSPGTFESWGQGTLVTVSS
VL: EIVMTQFPATLSVSPGERVTLSCRASQSVSNNLAWYQQKPGQPPRLLIYDASTRATGVPAKFSGTGSGTEFTLSISSLQSEDFAVYYCQQYHNWPPSYSFGLGTKLEIK
[1]
  Trimeric HA Binding RLU: 21200 RLU
[2]
  Trimeric HA Binding RLU: 25500 RLU
[3]
  Trimeric HA Binding RLU: 10200 RLU
[4]
  Trimeric HA Binding RLU: 44 RLU
[5]
  Trimeric HA Binding RLU: 25500 RLU
[6]
  Trimeric HA Binding RLU: 5170 RLU
[7]
  Trimeric HA Binding RLU: 13800 RLU
[8]
  Trimeric HA Binding RLU: 17200 RLU
[9]
  Trimeric HA Binding RLU: 25200 RLU
[10]
  Trimeric HA Binding RLU: 3050 RLU
[11]
  Trimeric HA Binding RLU: 18000 RLU
[12]
  Trimeric HA Binding RLU: 5580 RLU
[13]
  Trimeric HA Binding RLU: 23500 RLU
[14]
  Trimeric HA Binding RLU: 123 RLU

B2: TCN-529 (5297_H01) (antibody, V domains shown)
VH: QITLRESGPTLVKPTQTLTLTCTFSGFSLSTNGVNVGWIRQPPGKALEWLALIYWDDDKRYSPSLKRRLTITKDTSKNQVVLTLTNMDPVDTATYYCAHRPDFYGDFEYWGPGTLVTVSS
VL: QSALTQPASVSGSPGQSITISCTGSSSDIGGYNYVSWYQQHPGKAPKLMIYDVNNRPSGVSNRFSGSKSGNTASLTISGLQTDDEADYYCGSYTGSPHYVFGTGTKVTVL
[3]
  Trimeric HA Binding RLU: 46 RLU
[6]
  Trimeric HA Binding RLU: 45 RLU
[7]
  Trimeric HA Binding RLU: 43 RLU
[8]
  Trimeric HA Binding RLU: 158 RLU
[10]
  Trimeric HA Binding RLU: 2940 RLU
[11]
  Trimeric HA Binding RLU: 33 RLU
[15]
  Trimeric HA Binding RLU: 48 RLU
[14]
  Trimeric HA Binding RLU: 45 RLU
[16]
  Trimeric HA Binding: RLU: 179 RLU
[17]
  Trimeric HA Binding: RLU: 771 RLU

B3: TCN-532 (5262_H18) (antibody, V domains shown)
VH: QVQLQESGPGLVKPSETLSLTCTVSGGSVSSETYYWSWIRQPPGKGLEWIGYIYYIGNTDYRPSLKSRVTISLDTSKNQFSLKLSSVTAADTAVYYCARGAYYDSSGYPAFYIWGQGTMVTVSS
VL: QSVLTQPPSVSGAPGQRVTISCTGSSSNIGSDYDVHWYKQLPGTAPKLLIFGNSNRPSGVPDRFSGSKSGTSASLAITGLQAEDEADYYCQSYDSSLSGFHVFGSGTKVTVL
[3]
  Trimeric HA Binding RLU: 48 RLU
[6]
  Trimeric HA Binding RLU: 441 RLU
[18]
  Trimeric HA Binding RLU: 42 RLU
[7]
  Trimeric HA Binding RLU: 59 RLU
[8]
  Trimeric HA Binding RLU: 311 RLU
[10]
  Trimeric HA Binding RLU: 9970 RLU
[11]
  Trimeric HA Binding RLU: 29 RLU
[13]
  Trimeric HA Binding RLU: 78 RLU
[14]
  Trimeric HA Binding RLU: 29 RLU

B4: TCN-547 (5092_F11) (antibody, V domains shown)
VH: QVQLQESGPGLVKPSQTLSLTCTVSGDSISSVDHYWSWIRQHPVKGLEWIGFMYYSASTYYNPSLKSRVTISTDTSKNQFSLRLSSVTAADTAVYYCARGTCAGDCSLHYYYYGLDVWGQGRTVTVSS
VL: DIQMTQSPSSLSASVGDRVTITCRASQSISSYLNWYQHKPGKAPKVLMYAVSILQSGVPSRFSGSGSGADFTLTISSLQPEDFATYYCQQSYSSPLTFGGGTKVEIK
[19]
  Trimeric HA Binding RLU: 1470 RLU
[20]
  Trimeric HA Binding RLU: 1350 RLU
[21]
  Trimeric HA Binding RLU: 1080 RLU
[22]
  Trimeric HA Binding RLU: 6970 RLU
[23]
  Trimeric HA Binding: RLU: 170 RLU
[24]
  Trimeric HA Binding: RLU: 198 RLU
[25]
  Trimeric HA Binding: RLU: 1000 RLU

B5: TCN-522 (3212_I12) (antibody, V domains shown)
VH: QVQLQQWGAGLLKPSETLSLTCTVSGGSLTDYSWNWIRQPPGKGLEWIGDTLHNGYTNYNPSLRGRVSISIDTSKNQVSLRLTSVTAADTALYYCARGSGGYGGFDYFGKLRTWDFWGQGTLVTVSS
VL: DIQLTQSPSSLSASVGDRVTITCRASQGIRNDLGWYQQKPGNAPKRLIFGASSLQSGVPSRFSGSGSGTEFTLTISSLQPEDFATYYCLQHNSYPYTFGQGTKLEIK
[26]
  Trimeric HA Binding RLU: 37500 RLU
[27]
  Trimeric HA Binding RLU: 55400 RLU
[28]
  Trimeric HA Binding RLU: 11800 RLU
[29]
  Trimeric HA Binding RLU: 11900 RLU
[30]
  Trimeric HA Binding RLU: 17300 RLU
[31]
  Trimeric HA Binding RLU: 39600 RLU
[32]
  Trimeric HA Binding RLU: 48200 RLU
[33]
  Trimeric HA Binding RLU: 3350 RLU
[34]
  Trimeric HA Binding RLU: 49300 RLU
[35]
  Trimeric HA Binding RLU: 21400 RLU
[36]
  Trimeric HA Binding RLU: 54400 RLU
[37]
  Trimeric HA Binding RLU: 1050 RLU
[38]
  Trimeric HA Binding: RLU: 302 RLU
